In the DeepSol protein solubility set:

test: soluble on expression in E. coli; label from the status in PepcDB or PDB records

Sequence	soluble on expression in E. coli
MSVDLKRGETLPIHVNMTFPSLPCDVLSVDAIDMSGKHEVDLDTNIWKLRLNSHGHIIGTEYISDLVEKGHEHDGKEEHKNETETEALNILGFDQAAETMIKKVKQALADGEGCRVYGVLDVQRVAGNFHISVHGLNIYVAQMIFGGSKNVNVSHMIHDLSFGPKYPGIHNPLDDTNRILHDTSGTFKYYIKIVPTEYRYLSKDVLSTNQYSVTEYFTPMTEFDRTWPAVYFLYDLSPITVTIKEERRSFLHLITRLCAVLGGTFALTGMLDRWMFRFIESFNKKPSTRA	soluble
MNLNIETSRRIELIDITSEVKEEVRISGVREGVCIISTRHTTAGIIVNENENGLREDILNMLERLVPQGAGYRHDRIDNNADSHLKAILLGSSEALPIVKGELELGTWQSIFFAEMDGPRNRAVNLTILKTELEHHHHHH	soluble
MKRRDILKGGLAAGALALLPRGHTQGALQNQPSLGRRYRNLIVFVYDGFSWEDYAIAQAYARRRQGRVLALERLLARYPNGLINTYSLTSYVTESSAAGNAFSCGVKTVNGGLAIHADGTPLKPFFAAAKEAGKAVGLVTTTTVTHATPASFVISNPDRNAEERIAEQYLEFGAEVYLGGGDRFFNPARRKDGKDLYAAFAAKGYGVVRTPEELVRSNATRLLGVFADGHVPYEIDRRFQGLGVPSLKEMVQAALPRLAAHRGGFVLQVEAGRIDHANHLNDAGATLWDVLAADEVLELLTAFVDRNPDTLLIVVSDHATGVGGLYGAGRSYLESSQGVDLLEPQRASFEHMLRVLGQAPEASQVKEAFRAMKGVDLEDAEAERVVRAIREKVYWPEGVRQGVQPANTMAWAMVQRDAQKPDRPNIGWSSGQHTASPVMLLLYGQGLRFVNLGLVDNTHVFRLMGEALGLRYQNPVMSEEEALEILKARPQGMRHPEDVWA	soluble
MLDYVPWIGNGYRYGNNHRGSNSSTSGVTTQGQSQNASSNEPAPTFSNVGVGLKANVNGTLSGSRTTPNQQGTPWLTLDQANLQLWTGAGWRNDKNGQSDENYTNFASAKGSTNQQGSTTGGSAGNPDSLKQDKADKSGDSVTVAEATSGDNLTNYTNLPPTSPPHPTDRTRCHSPTRTTPSGCSCSCAACWAASRCWSIRVGKMITVSLIPPTKNGLTPNLEHHHHHH	not soluble
GLGFETMRDGIKVAAKETLLTPRFYTTDFDEMEQLFSKEINPNLDMEELNACLNEFRNDYNKVHFVRNETFKAAADKVTGETRRIFIEFLERSCTAEFSGFLLYKELARRMKASSPEVAEMFLLMSRDEARHAGFLNKALSDFNLALDLGFLTKNRTYTYFKPKFIIYATFLSEKIGYWRYITIYRHLQRNPDNQFYPLFEYFENWCQDENRHGDFLAACLKAKPELLNTFEAKLWSKFFCLSVYITMYLNDHQRTKFYESLGLNTRQFNQHVIIETNRATERLFPVVPDVEDPRFFEILNKMVDVNAKLVELSASSSPLAGLQKLPLLERMASYCLQLLFFKEKDVGSVDIAGSGASRNLAY	not soluble
MSAKQVSKDEEKEALNLFLSTQTIIKEALRKLGYPGDMYELMKEPQRMLTVRIPVKMDNGSVKVFTGYRSQHNDAVGPTKGGVRFHPEVNEEKVKALSIWMTLKCGIANLPYGGGKGGIICDPRTMSFGELERLSRGYVRAISQIVGPTKDIPAPDVYTNSQIMAWMMDEYSRLREFDSPGFITGKPLVLGGSQGRETATAQGVTICIEEAVKKKGIKLQNARIIIQGFGNAGSFLAKFMHDAGAKVIGISDANGGLYNPDGLDIPYLLDKRDSFGMVTNLFTDVITNEELLEKDCDILVPAAISNQITAKNAHNIQASIVVERANGPTTIDATKILNERGVLLVPDILASAGGVTVSYFEWVQNNQGYYWSEEEVAEKLRSVMVSSFETIYQTAATHKVDMRLAAYMTGIRKSAEASRFRGWV	soluble
MGSDKIHHHHHHMNDFEEYIRQSEPHKREKGYAWQTAIGLQAVDGLKPSEYLKEKARQHIEGDITIDEVKQLVDSYYKSKVARSSSEDRTEEADKVSARITEILSENTFTFSPIEYLAIHRHLFEGIFSHAGQIRDYNITKNEWVLKGATVLYASAGSIRETLEYDFSQEKIFDYKNLNIDEAIRHIARFVSGIWQIHAFGEGNTRTTAVFTIKYLHTFGFNFSNETFANHSWYFRNALVRANYNDLTKGVYATTEFLEKFFRNLILNEQNELKNRNLQIDEIEKEAIQSAKQTDMDIPKCKNCTLDCTLEEIAVLNYLKEKPNATQKEIAQHIGKSERTVKSMTVNLSERGIIERKNGRRNGFWEIKK	not soluble
SSRVTYPLRKMREGAQDLAKGKFDTKIPILTQDEIGELATAFNQMGRQLNFHINALNQEKEQLSNILSSMADGVITINIDGTILVTNPPAERFLQAWYYEQNMNIKEGDNLPPEAKELFQNAVSTEKEQMIEMTLQGRSWVLLMSPLYAESHVRGAVAVLRDMTEERRLDKLREDFIANVSHELRTPISMLQGYSEAIVDDIASSEEDRKEIAQIIYDESLRMGRLVNDLLDLARMESGHTGLHYEKINVNEFLEKIIRKFSGVAKEKNIALDHDISLTEEEFMFDEDKMEQVFTNLIDNALRHTSAGGSVSISVHSVKDGLKIDIKDSGSGIPEEDLPFIFERFYKADKARTRGRAGTGLGLAIVKNIVEAHNGSITVHSRIDKGTTFSFYIPTKR	not soluble
GPGSMLASSSLVSVKRTLRIKVGTSTSERLRAAELDEPTTSSARPPPSAMDLSYITGKMPDTLPAYQTERAVWSATTFRSAWNKLHKAYASFLETDPERAAELRAKDWQGLALYNSYAETLHLMSLLPATLRTAITQHSSFDYTEVEELFVHLGQDVEVRGSGGWVIQLPPPTTADLQYLVKHIGRFGADGRGCVANTAHRASVWRGRHGEALGVTLRVGRYVPGAARALLPLAQRGSLLILSKAGMGKTTLLRDLAAALAQEPGTPRVTVVDTSNEIGGDGPIPLPYLGRCRRIQVAQRQDQGRVMMEVIQNHTPEYLIVDEIATEEEAEAAWSISQRGVHLIGTCHGEHLEGLLQNRALNLLVGGAAQAFLSNEERRLRNKMKKTVLERPYSSPFSFVVELHARNLGHLYVDVNKAVDLVLDEQPAQLNGAVGAAVELSALLPSRVEKLLRLHDERKRKLKYVAGTGTNDAEVGEEDDETATFSSAARGTVDEDGYTLLADDGGDPESKRSIAPSTYAAPNHASGRRPHWQAEKQRRHRKTDDELYGELKGSF	not soluble
MGNYMTYIVGLTGGIGSGKTTIANLFTDLGVPLVDADVVAREVVAKDSPLLSKIVEHFGAQILTEQGELNRAALRERVFNHDEDKLWLNNLLHPAIRERMKQKLAEQTAPYTLFVVPLLIENKLTALCDRILVVDVSPQTQLARSAQRDNNNFEQIQRIMNSQVSQQERLKWADDVINNDAELAQNLPHLQQKVLELHQFYLQQAENKNALEHHHHHH	soluble
AHHHHHHGSLKLSDFIPLTMLREGETGVVVDIQSGVNARGKLLSMGITPGVRVRMIKSRKPGPVIIGIGSSKIALGWGIASKIIVRRE	not soluble
MAFYLPDWSCCGLWLFGRPRNRYSQLPEEPETFECPDRWRAEIDLGLPPGVQVGDLLRNEQTMGSLRQVYLLAVQANSITDHLKRFDAVRVPESCRGVVEAQVAKLEAVRSVIWNTMISLAVSGIEMDENGLKALLDKQAGDSLALMEMEKVATALKMDETGAWAQEISAVVSSVTAPSASAPFINSAFEPEVPTPVLAPPPVVRQPEHSGPTELALT	not soluble
MAHHHHHHMGLVSSKHAGGGDGKPLSLDVISSRPKLEPHEVSLLQLTPHGVYATLAAHVYCAAAPETAMQVPLPDGWEVLLQCSSLHLDKEGYFAVAYVHRGSRHCIISERGTSEVLGLRAGIWMYFEQPTIQFFLAEQFSKAVRHKLKVMDKVCSGSWFVSYTGHSLGAVIAGCRAVMEGTLAVTFESPGARVFIEKTLDASSGTDEHLITYLRAPNPINTLKPQCGYVIMIPTQQVVLPSGTLFLAPSNPAAAEDDDEDERQSPRSGSGNRASRKPSKVPLSSTSSTNPSGCAGLVAASVTTAASTGTTAAATLAARSPTPPSVPASNSNNSGPGAAVASAPARWRIPSFRPQEYLRGYLFGGVGMGVPELQQYVGKVEPMIREMLEHTQQVHSIHSLRSHFQKSDEPGDEEVVLRWPSHLLQFMEFYNTTRALEDPENQDAGVKEAYLGLMRRLYYTEPRRRDCIPTKYLDPRSLLLVRMWWSMDAAQRKQWPLSLMDHKALNVIQIKDRYLCSYVMTAMQAKQYLMRLVARPEMRAMIDQWRRERNDGSTGAGSPQRSKL	not soluble
MGSDKIHHHHHHVTALSIIKEAEHSLQMLFNELEEIAYTNQVRVIEAFHKHRVREYYFYPSTGYGYGDSGRDALEDIFADIFGTEDALVRSQVVSGTHAISACLFALLRPGDELISLTGSPYDTLCRIIGHEEKSPGTLIDKGIKYSEVDLDERGKPDLTAIAAAIKDTSRMVLIQRSRGYKTRPPVDLDTIAAITKLVKARNPATIVMLDNCYGEFTAVQEPGHYGVDIIAGSLIKNPGGGLIPSGGYIAGNQDLIEQLAFHLTAPGLGKELGASLLDKRIMYQGLFLAPHTVLQALKGAVLLAYVFEEHGYEVFPRWNEKRSDIVQAVKLRDAAEVLRFCQEVQNASPVDSDVTLEYGELPAYRDKIVMAAGTFVQGSSIELSCDAPLRSPHCVFLQGGLSYEHCRFLLQRLLDRFLLANA	not soluble
MGSSHHHHHHSSGLVPRGSHMAHQDALPRLPVPPLQQSLDYYLKALQPIVSEEEWAHTKQLVDEFQTSGGVGERLQKGLERRAKKMENWLSEWWLKTAYLQFRQPVVIYSSPGVILPKQDFVDLQGQLRFAAKLIEGVLDFKSMIDNETLPVEFLGGQPLCMNQYYQILSSCRVPGPKQDSVVNFLKSKRPPTHITVVHNYQFFELDVYHSDGTPLTSDQIFVQLEKIWNSSLQSNKEPVGILTSNHRNTWAKAYNNLIKDKVNRESVNSIQKSIFTVCLDKQVPRVSDDVYRNHVAGQMLHGGGSKFNSGNRWFDKTLQFIVAEDGSCGMVYEHAAAEGPPIVALVDHVMEYTKKPELVRSPMVPLPMPKKLRFNITPEIKNDIEKAKQNLSIMIQDLDIMMLTFHHFGKDFPKSEKLSPDAFIQVALQLAYYRIYGQACATYESASLRMFHLGRTDTIRSASIDSLAFVKGMGDSTVPEQQKVELLRKAVQAHRAYTDRAIRGEAFDRHLLGLKLQAIEDLVSMPDIFMDTSYAIAMHFNLSTSQVPAKTDCVMAFGPVVPDGYGICYNPMEAHINFSVSAYNSCAETNAARMAHYLEKALLDMRTLLQNHPRAKL	soluble
MGSDKIHHHHHHMLLGRTANGLYWMNRYIERAENMARLVDAGLRMALTRTQNASEEWNSVLLSAGSDVAFKQKYSDYTAADVADFLLRDTSNPSSTMSSIETARNNARMVRTALTRETWESINEAWMSLKRMLARPIDERDLPSVLDAIKRETALIRGSFYGTMLRNEIFDFSQLGTYVERADNTARILDVKYYVLLPSISWVGSTLDNYQWESILRSVSAHRSYRWVYDADYKPTNIADYLILNVRMPRSLTFCYRFLSEHLKFLSDDYGERHACHATAEKTQAMLRAGSIKDIFDAGLHEFLAGFIRDNTRLGDEIAQDYRFY	not soluble
MSLMRIVFDIGGSVLVPEKPDVDFITKLGYELTKISEDHEIAIVVGGGKVAREYIEVASKFNTNETFKDYLGIQITRANAMLLIAALKERAYPQVVSDFWEAWKAIQLKKIPVMGGTHPGHTTDAVSALLAEFLSADLLVVITNVDGVYTEDPKKNPNAKKIPKMKAKDLVDIVSREAGKAGVSTVIDPLAAKIIMRSGIKTYVIGKEDALKLFDVIKGNHNGTIIEPEGHHHHHH	soluble
MRTILIDWFSDAVREYISRKEAVHLAASLVDRALPMFNIDKMRFQLVGITSMRIAVKYEEIFPPILSNTRHSFDGAILYWKVRLHRRNAHTILDRIMLCTENELGVCRQLLTQGFATSYPSLA	not soluble
